Data published in article PMC9927489 (Microbiology Spectrum, 2023).
Where two headings read alike, the source gives them in different places.

Key:
[1] = target: Mycobacterium tuberculosis dUTPase mutant mDut H145F, His-tagged (Mycobacterium tuberculosis (strain H37Rv)) (UniProt P9WNS5); assay: BLI; […] (218.7 nM) […]; 28°C; 1:1 kinetic model
[2] = target: Mycobacterium tuberculosis dUTPase mutant mDut H145F, His-tagged (Mycobacterium tuberculosis (strain H37Rv)) (UniProt P9WNS5); assay: BLI; […] (218.7 nM) […]; 28°C; 1:1 kinetic model; remark: listed apart in the source

## Stl^N-ter (SaPIbov1 Stl, N-terminal DNA-binding domain and middle domain, residues 1 to 156) (domain or fragment)
[1]
  Kd: 12.4 nM
[2]
  Kd: 12.5 nM
  koff: 0.00483 s⁻¹
  kon: 388000 M⁻¹ s⁻¹
